The results in this text go back to article PMC2575085 (Nature structural & molecular biology, 2008).

Several values for one entry are separate records, joined by “and”; a condition that tells them apart may be missing. Identical values can stand only once. Like-named read-outs stand apart in the source and are kept apart here.

Assay in all cases: EPR
In series [1] the target is Sso1pHT spin-labeled cysteine mutant at position 269 (yeast) (UniProt P32867).
The target is the same in series [2]. The source holds these as a separate data set.
The target of series [3] is Sso1pHT spin-labeled cysteine mutant at position 272 (yeast) (UniProt P32867).
For series [4] the target is unchanged. This is another data set of the same source.
The target of series [5] is Sso1pHT spin-labeled cysteine mutant at position 284 (yeast) (UniProt P32867).
Series [6] has the same target. This is another data set of the same source.
Series [7] deals with the molecule itself.

Consider “Sso1pHT spin-labeled cysteine mutant at position 269 (from UniProt P32867 185-290) (domain or fragment)”, for which the stoichiometry N in series [1] is more than 3. In series [2], the ln K (equilibrium constant of nM to Mn, concentration as protein:lipid ratio) was determined as 18.4 and the stoichiometry N was 4.
As for “Sso1pHT spin-labeled cysteine mutant at position 272 (from UniProt P32867 185-290) (domain or fragment)”, the stoichiometry N in series [3] was more than 3. Besides, in series [4], the ln K (equilibrium constant of nM to Mn, concentration as protein:lipid ratio) is 18.4 and the stoichiometry N stood at 4.
For “Sso1pHT spin-labeled cysteine mutant at position 284 (from UniProt P32867 185-290) (domain or fragment)”, the values for the stoichiometry N in series [5] and in series [6] were more than 3 and 4, respectively. Also, the ln K (equilibrium constant of nM to Mn, concentration as protein:lipid ratio) in series [6] stood at 18.4.

B1: Sso1pHT I273C, spin-labeled (domain or fragment, yeast, UniProt P32867 185-290, looked up)
chain: EAKTALAEVQARHQELLKLEKSMAELTQLFNDMEELVIEQQENVDVIDKNVEDAQLDVEQGVGHTDKAVKSARKARKNKIRAWLIVFACIVVVVVVVVVPAVVKTR
modifications: MTSSL nitroxide spin label on the cysteine at 273
With B1, in series [7], the “ln K (equilibrium constant of nM to Mn, concentration as protein:lipid ratio)” value was determined as 18.4; the “stoichiometry N” value is 4 and ≥ 3.

In general, stoichiometry N refers to a count of units in the complex or per binding partner.
